Source: US6379938B1, “Epoxide hydrolase” (Puratos N.V., priority 1997, dated 2002)

What was measured:
[1] = Determination of the cis-epoxysuccinate-hydrolase activity (L-tartaric acid formed, HPLC); type: biochemical; settings: cells of Escherichia coli DH10B containing plasmid pREHXS, overnight culture; 37° C., pH 8.0; activity = amount of L(+)-tartaric acid formed in a day by 1 gram of dried cells
Method: The enzymatic reaction is performed at 37° C. in a final volume of 9.3 ml that contains the following components: 0.7 ml of 0.1N Tris.HCl buffer pH 8.0, 2.6 ml of a 1.14% Triton X-100 solution, 5.0 ml of a 30% sodium cis-epoxysuccinate solution and 1.0 ml of the cell suspension. The reaction is stopped by diluting the mixture between 100 and 500 times with H2O acidified to pH 2.2 with H3PO4.
The amount of L-tartaric acid formed during the reaction is determined by HPLC at room temperature on a Vydac C18 column (cat no. 201HS3410) with a flow rate between 400 and 600 μl/min and a sample volume of 20 μl. The solvent is the same as the one used to dilute the samples. The detection of cis-epoxysuccinate and tartaric acid occurs at 210 nm.
Activity is expressed as the amount of L(+)-tartaric acid formed in a day by 1 gram of dried cells.
The Escherichia coli strain DH10B containing the plasmid pREHXS is cultivated overnight in 2×LB medium (Yeast Extract 1%, Bacto-tryptone 2%, NaCl 2%) supplemented with 100 μg/ml of ampicillin. The same strain with the pBluescriptSK(+) plasmid without insert is used as a control.
The activity of the cis-epoxysuccinate hydrolase is determined in the cells collected from the two cultures using the protocol described in example 1. No activity could be detected in the control. About 150 units is present in the strain expressing the cis-epoxysuccinate gene.

[2] = pH activity profile of the epoxide hydrolase (FIG. 5); type: biochemical; settings: pH between 7.0 and 10 (FIG. 5)
Source text: The isolated and purified epoxide hydrolase amino acid sequence according to the invention is also characterised by an advantageous pH activity profile having a high enzymatic activity (more than 80% of the optimum enzyme activity) between 7.0 and 10, preferably between 7.5 and 9.5 (see FIG. 5).
FIG. 5 represents the relative enzymatic activity of the enzyme according to the invention.
This enzymatic activity is advantageously maintained constant at a pH higher than 7, preferably at a pH comprised between 7.0 and 10, more preferably at a pH comprised between 7.5 and 9.5.

B1: cis-epoxysuccinate hydrolase: 253 amino acid, 28 kDa epoxide hydrolase of Rhodococcus rhodochrous LMGP-18079, expressed in E. coli from plasmid pREHXS (protein)
chain: MQLNNANDNTQFRALLFDVQGTLTDFRSTLIEHGLSILGDRVDRELWEELVDQWRGCYRDELDSLVKQEKWRSVRAVYRDSLINLLAKFSDSFCATSAEVELLTDGWERLRSWPDVPSGLEQLRSKYLVAALTNADFSAIVNVGRSAKLQWDAVLSAQLFGAYKPHRSTYEGAATLLGIAPSEILMVASHAYDLEAAREVGAGTAYVRRPLEYGPTGRTEDVPDGRFDFLVDSISELADQLGCPRLGGTAGID
- activity of the cis-epoxysuccinate hydrolase [1]: About 150 units
- enzymatic activity relative to the optimum enzyme activity [2]: more than 80%
